Assay results as given in patent publication US11505576B2, “Polypeptides based on a scaffold” (AFFIBODY AB, priority 2018, dated 2022).

Columns and labels:
[1] = Circular dichroism spectroscopy analysis (CD spectra, variable temperature measurement, refolding); format: physicochemical; settings: for α-helical content / ability to fold into an α-helical structure: CD spectrum at 20° C.
How it was run: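 Y variants at 0.5 mg/ml in PBS were scanned from 250 to 195 nm at 20° C. in a 1 mm cell. Tm came from the 221 nm signal during heating from 20 to 90° C. at 5° C./min, and a second 20° C. spectrum after heating assessed refolding. Selected IL-6 binders were also recorded at 60, 70, 80 and 90° C.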

IL-6 = biological target: T1, IL-6 (Homo sapiens, UniProt P05231); assay: Kinetic analysis using surface plasmon resonance (Biacore T200), immobilized IL-6; format: binding
T1 construct: purchased R&D Systems 206-IL-200/CF
T1 sequence (P05231 30-212): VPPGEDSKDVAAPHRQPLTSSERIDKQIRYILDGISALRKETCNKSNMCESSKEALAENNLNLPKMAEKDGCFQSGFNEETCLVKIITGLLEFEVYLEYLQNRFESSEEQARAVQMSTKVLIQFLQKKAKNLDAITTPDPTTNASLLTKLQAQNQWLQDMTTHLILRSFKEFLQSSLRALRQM
Protocol: (§1) Kinetic constants (ka and kd) and affinities (KD) were determined for His6-tagged Y variants using a Biacore T200 instrument (GE Healthcare). Target proteins C4, IL-6 and insulin, respectively, were immobilized in separate flow cells on the carboxylated dextran layer of different CM5 chip surfaces (GE Healthcare). Immobilization was performed using amine coupling chemistry according to the manufacturer's protocol and PBS pH 7.4 supplemented with 0.1 Tween20 (PBST 0.1%) as running buffer. The ligand immobilization levels on the surfaces were 3280-8830 RU for C4, 495-1184 RU for IL-6, and 270-282 RU for insulin. One flow cell surface on each chip was activated and deactivated for use as blank during analyte injections. In the kinetic experiment, PBST 0.1% was used as running buffer at a flow rate of 30 μl/min. The analytes, i.e. Y variants, were each diluted in PBST 0.1 buffer at concentrations of 1000, 500, 100, 50 and 10 nM and injected for 5 min, followed by dissociation in running buffer for 3 min. After dissociation, the surfaces were regenerated with one injection of 30 μl 10 mM HCl. Kinetic constants were calculated from the sensorgrams using the Langmuir 1:1 model of Biacore T200 Evaluation software 2.0 (GE Healthcare).
(§2) Produced Y variants were subjected to CD and SPR analyses according to the methods described in Example 1.
(§3) Produced Y variants were subjected to CD and SPR analyses according to the methods described in Example 1. In addition, CD spectra of selected IL-6 binding variants were also recorded at 60, 70, 80 and 90° C.
The Y variants were cloned, produced and characterized according to the general methods described in Example 1. Produced Y variants with point mutations were subjected to CD and SPR analyses as described in Example 1. In addition, CD spectra of the IL-6 binding variants were also recorded at 60, 70, 80 and 90° C.

C4 = assay: Kinetic analysis using surface plasmon resonance (Biacore T200), immobilized C4; format: binding; settings: Table 7; MGSSHHHHHHGSS-[Y#####]-A
Protocol: as §1, §2
The Y variants were cloned, produced and characterized according to the general methods described in Example 1. Produced Y variants with point mutations and/or N-terminal or C-terminal extensions were subjected to CD and SPR analyses as described in Example 1.
as §3

[2] = Fraction of soluble product on expression in E. coli, estimated from SDS-PAGE; format: physicochemical; settings: MGSSHHHHHHGSS-[Y#####]-A; for Estimated soluble fraction: Table 7, Ylib002Naive.I selection; for Est soluble fraction: Table 9, mutation study 5
Protocol: E. coli T7E2 cells were transformed with plasmids containing the gene fragment of each respective Y variant. The resulting recombinant strains were generally cultivated in media supplemented with 50 μg/ml kanamycin at 30-37° C. in 50 ml scale using the EnPresso protocol (Enpresso GmbH). In order to induce protein expression, isopropyl-β-D-1-thiogalactopyranoside (IPTG) was added to a final concentration of 0.5 mM at an optical density at 600 nm (OD600) of approximately 10. After induction, the cultures were incubated for 16 h. The cells were harvested by centrifugation. Alternatively, the culture was performed at 37° C. in 980 ml of TSB-YE medium (tryptic soy broth 30 g/l supplemented with yeast extract 5 g/l) supplemented with 50 μg/ml kanamycin, and protein expression induced with 0.2 mM IPTG at OD600=2, followed by incubation for 5 h before harvesting of the cells by centrifugation. The total yield as well as the fraction of soluble and insoluble product of the respective Y variant was estimated based on SDS-PAGE analysis.

insulin = biological target: T2, insulin (Homo sapiens, UniProt P01308); assay: Kinetic analysis using surface plasmon resonance (Biacore T200), immobilized insulin; format: binding; settings: Table 9, mutation study 5; MGSSHHHHHHGSS-[Y#####]-A
T2 construct: purchased Roche 1376497
T2 sequence (P01308 25-54 limits assumed): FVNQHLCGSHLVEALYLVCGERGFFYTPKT
T2 sequence (P01308 90-110 limits assumed): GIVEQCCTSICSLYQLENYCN
How it was run: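 His6-tagged Y variants injected at 10–1000 nM over amine-coupled insulin (270–282 RU) in PBST 0.1%, pH 7.4, at 30 μl/min. Association 5 min, dissociation 3 min. ka, kd and KD derived from a Langmuir 1:1 fit.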

[3] = Table 2, Ylib001Naive.I selection, MGSSHHHHHHGSS-[Y#####]-ASGSVD, 0.5 mg/ml in PBS, 221 nm, 20-90° C.
[4] = Table 2, His6-tagged Y variant, MGSSHHHHHHGSS-[Y#####]-ASGSVD
[5] = Table 7, MGSSHHHHHHGSS-[Y#####]-A
[6] = Table 9, mutation study 5, MGSSHHHHHHGSS-[Y#####]-A

Substance | Kd (IL-6; [5]) [nM] | ka (IL-6; [5]) [M⁻¹ s⁻¹] | kd (IL-6; [5]) [s⁻¹] | Kd (IL-6; [6]) [nM] | ka (IL-6; [6]) [M⁻¹ s⁻¹] | kd (IL-6; [6]) [s⁻¹] | Estimated soluble fraction [2] [%] | Est soluble fraction [2] [%] | also measured
Y00035: IL-6 binding Y variant from Ylib001Naive.I, SEQ ID NO:50 (LAEAKEAANAELDSYGVQANSIEAIEQGLFVEVVELLKELILAALP; Engineered IL-6 binding Y variant) |  |  |  |  |  |  |  |  | α-helical content / ability to fold into an α-helical structure [1]: limited ability; Tm [1, 3]: 60 °C; Kd (IL-6; [4]): 360 nM
Y00076: IL-6 binding Y variant from Ylib001Naive.I, SEQ ID NO:61 (LAEAKEAALAELDSKGIEEKSISEIEAGLWVEVVELLKESILAVLP; Engineered IL-6 binding Y variant) |  |  |  |  |  |  |  |  | α-helical content / ability to fold into an α-helical structure [1]: limited ability; Tm [1, 3]: 47 °C; Kd (IL-6; [4]): 430 nM
Y00792: C4 binding Y variant from Ylib002Naive.I, SEQ ID NO:32 (LAEAKEAAIAELDSKGVGADLIKKIQQASSVEGVQFWKQEILAQLPA; Engineered C4 binding Y variant) |  |  |  |  |  |  | 100 |  | Kd (C4): 62 nM; ka (C4): 27000 M⁻¹ s⁻¹; kd (C4): 0.0017 s⁻¹; Tm [1, 5]: 58 °C
Y02444: IL-6 binding Y variant from Ylib002Naive.I, SEQ ID NO:75 (LAEAKEAAIAELDSKGVGAVEIKQIQEALLVEIVQLLKQAILAVLPA; Engineered IL-6 binding Y variant) | 61 | 90000 | 0.0055 |  |  |  | 100 |  | Structure at elevated temperature ([1]; CD spectra recorded at 60, 70, 80 and 90° C.): partial structure also at temperatures up to 90 °C
Y02447: IL-6 binding Y variant from Ylib002Naive.I, SEQ ID NO:76 (LAEAKEAAIAELDSKGVGAHGIKEIQDAILVEIVQLLKQAILAALPA; Engineered IL-6 binding Y variant) | 160 | 11000 | 0.0017 |  |  |  | 100 |  | 
Y02465: IL-6 binding Y variant from Ylib002Naive.I, SEQ ID NO:78 (LAEAKEAAIAELDSKGVGANHIKAIQHAQFVEIVQLLKQAILAVLPA; Engineered IL-6 binding Y variant) | 270 | 7500 | 0.0021 |  |  |  | 100 |  | 
Y02697: IL-6 binding Y variant, Y02444 with I9L, SEQ ID NO:81 (LAEAKEAALAELDSKGVGAVEIKQIQEALLVEIVQLLKQAILAVLPA; Engineered IL-6 binding Y variant) |  |  |  | 150 | 50000 | 0.009 |  | 100 | 
Y02698: IL-6 binding Y variant, Y02444 with K15Y, SEQ ID NO:82 (LAEAKEAAIAELDSYGVGAVEIKQIQEALLVEIVQLLKQAILAVLPA; Engineered IL-6 binding Y variant) |  |  |  | 120 | 28000 | 0.0033 |  | 100 | 
Y02699: IL-6 binding Y variant, Y02444 with Q26E, SEQ ID NO:83 (LAEAKEAAIAELDSKGVGAVEIKQIEEALLVEIVQLLKQAILAVLPA; Engineered IL-6 binding Y variant) |  |  |  | 200 | 19000 | 0.0029 |  | 100 | 
Y02702: IL-6 binding Y variant, Y02415 with Q26E, SEQ ID NO:86 (LAEAKEAAIAELDSKGVGAGDIKDIEDALLVEIVQLLKQAILAVLPA; Engineered IL-6 binding Y variant) |  |  |  | 440 | 16000 | 0.007 |  | 100 | 
Y02703: IL-6 binding Y variant, Y02444 with K15Y Q26E, SEQ ID NO:87 (LAEAKEAAIAELDSYGVGAVEIKQIEEALLVEIVQLLKQAILAVLPA; Engineered IL-6 binding Y variant) |  |  |  | 120 | 21000 | 0.0025 |  | 100 | 
Y02715: insulin binding Y variant, Y00358 with K15Y Q26E, SEQ ID NO:155 (LAEAKEAAIAELDSYGVGAAKIKWIEDAKSVETVQFLKQAILAELPA; Engineered insulin binding Y variant) |  |  |  |  |  |  |  | 100 | Tm [1, 6]: 61 °C; Kd (insulin): 280 nM; ka (insulin): 6700 M⁻¹ s⁻¹; kd (insulin): 0.0019 s⁻¹
Y02716: insulin binding Y variant, Y00301 with K15Y Q26E, SEQ ID NO:156 (LAEAKEAAIAELDSYGVGARQIKWIEQAKSVEVVQWLKQAILADLPA; Engineered insulin binding Y variant) |  |  |  |  |  |  |  | 100 | Tm [1, 6]: 58 °C; Kd (insulin): 7.6 nM; ka (insulin): 2.7e+07 M⁻¹ s⁻¹; kd (insulin): 0.21 s⁻¹
Y02717: insulin binding Y variant, Y00310 with K15Y Q26E, SEQ ID NO:157 (LAEAKEAAIAELDSYGVGAYQIKFIEIAHTVEEVQLMKQAILADLPA; Engineered insulin binding Y variant) |  |  |  |  |  |  |  | 100 | Tm [1, 6]: 52 °C; Kd (insulin): 610 nM; ka (insulin): 33000 M⁻¹ s⁻¹; kd (insulin): 0.02 s⁻¹

The next lines start with results.

Kd (IL-6; [5]) [nM] | ka (IL-6; [5]) [M⁻¹ s⁻¹] | kd (IL-6; [5]) [s⁻¹] | Kd (IL-6; [6]) [nM] | ka (IL-6; [6]) [M⁻¹ s⁻¹] | kd (IL-6; [6]) [s⁻¹] | Substance | Estimated soluble fraction [2] [%] | Est soluble fraction [2] [%] | also measured
120 | 14000 | 0.0017 |  |  |  | Y02374: IL-6 binding Y variant from Ylib002Naive.I, SEQ ID NO:72 (LAEAKEAAIAELDSKGVGAAEIKRIQAAELVEIVQLLKQAILAVLPA; Engineered IL-6 binding Y variant) | 100 |  | 
160 | 9700 | 0.0015 |  |  |  | Y02415: IL-6 binding Y variant from Ylib002Naive.I, SEQ ID NO:74 (LAEAKEAAIAELDSKGVGAGDIKDIQDALLVEIVQLLKQAILAVLPA; Engineered IL-6 binding Y variant) | 100 |  | 
240 | 7100 | 0.0017 |  |  |  | Y02495: IL-6 binding Y variant from Ylib002Naive.I, SEQ ID NO:79 (LAEAKEAAIAELDSKGVGAEEIKEIQGAMLVEIVQLLKQAILAVLPA; Engineered IL-6 binding Y variant) | 100 |  | 
 |  |  | 62 | 46000 | 0.0025 | Y02700: IL-6 binding Y variant, Y02415 with I9L, SEQ ID NO:84 (LAEAKEAALAELDSKGVGAGDIKDIQDALLVEIVQLLKQAILAVLPA; Engineered IL-6 binding Y variant) |  | 100 | 
 |  |  | 210 | 21000 | 0.0036 | Y02701: IL-6 binding Y variant, Y02415 with K15Y, SEQ ID NO:85 (LAEAKEAAIAELDSYGVGAGDIKDIQDALLVEIVQLLKQAILAVLPA; Engineered IL-6 binding Y variant) |  | 100 | 
